The labels stand for the following.
B1: Pistol ribozyme (parent)
chain: GGGUCGUUGUUCCAUAAUCGCGUGGAUAUGGCACGCAAGUUUCUACCGGGCACCGUAAAUGUCCGACUGGAGCCGUUCGGGCGGCUAUAAACAGACCUCAGGCCCGAAGCGUGGCGGCACCUGCCGCCGGUGGUAAAAAAGAUCGGAAGAGCACACGUCU

The data set covers variants of B1. As to the kind of experiment: aptazyme ON/OFF ratio, guanine; higher = stronger switching; co-transcriptional cleavage with and without guanine.
For the variant U7G U8G G9A U10G C12U C13G, the “aptazyme ON/OFF ratio” value amounted to 1.31.

For U7G U8G G9A U10G C12U C13A, the “aptazyme ON/OFF ratio” value was determined as 1.25.

Turning to U7G U8G G9A U10G C12U C13U, the “aptazyme ON/OFF ratio” value stood at 1.17.

Turning to U7G U8G G9A U10A U11G C13U, the “aptazyme ON/OFF ratio” value was found to be 1.14.

Regarding U7G U8G G9A U10A U11G C13A, the “aptazyme ON/OFF ratio” value stood at 1.09.

For U7G U8G G9A U10A U11G C13G, the “aptazyme ON/OFF ratio” value is 1.16.

In the case of U7G U8G G9A U10A U11C C12G C13A, the “aptazyme ON/OFF ratio” value was 1.13.

For the variant U7G U8G G9A U10A U11C C12G C13G, the “aptazyme ON/OFF ratio” value worked out at 1.22.

For U7G U8G G9A U10A U11C C12G C13U, the “aptazyme ON/OFF ratio” value amounted to 1.13.

Regarding U7G U8G G9A U10G U11C C12G C13A, the “aptazyme ON/OFF ratio” value turned out to be 1.16.

In the case of U7G U8G G9A U10G U11C C12G C13G, the “aptazyme ON/OFF ratio” value stood at 1.13.

Consider U7G U8G G9A U10G U11C C12G C13U, for which the “aptazyme ON/OFF ratio” value worked out at 1.28.

Consider U7G U8G G9A U10C U11G C12U C13U, for which the “aptazyme ON/OFF ratio” value came to 1.38.

Turning to U7G U8G G9A U10C U11G C12U C13G, the “aptazyme ON/OFF ratio” value came to 1.16.

As for U7G U8G G9A U10C U11G C12U C13A, the “aptazyme ON/OFF ratio” value amounted to 1.27.

Regarding U7G U8G G9C U10A U11A C12U, the “aptazyme ON/OFF ratio” value came out at 1.07.

Take U7G U8G G9C U10A U11A C12A: the “aptazyme ON/OFF ratio” value was 1.07.

On to U7G U8G G9C U10A U11A C12G, for which the “aptazyme ON/OFF ratio” value was determined as 1.07.

In the case of U7G U8G G9C U10C C12U, the “aptazyme ON/OFF ratio” value worked out at 1.38.

In the case of U7G U8G G9C U10C C12G, the “aptazyme ON/OFF ratio” value worked out at 1.28.

Regarding U7G U8G G9C U10C C12A, the “aptazyme ON/OFF ratio” value was found to be 1.33.

Turning to U7G U8G G9A U10C C12U C13G, the “aptazyme ON/OFF ratio” value worked out at 1.18.

Regarding U7G U8G G9A U10C C12U C13U, the “aptazyme ON/OFF ratio” value worked out at 1.29.

U7G U8G G9A U10C C12U C13A: the “aptazyme ON/OFF ratio” value came to 1.11.

U7G U8G G9C U10C U11C: the “aptazyme ON/OFF ratio” value was found to be 1.22.

On to U7G U8G G9C U10C U11A, for which the “aptazyme ON/OFF ratio” value was 1.64.

For the variant U7G U8G G9C U10C C13U, the “aptazyme ON/OFF ratio” value turned out to be 1.59.

As for U7G U8G G9C U10C C13A, the “aptazyme ON/OFF ratio” value came to 1.44.

As to U7G U8G G9C U10C C13G, the “aptazyme ON/OFF ratio” value was determined as 1.15.

Turning to U7G U8G G9C U10A C12A C13U, the “aptazyme ON/OFF ratio” value stood at 1.04.

In the case of U7G U8G G9C U10A C12A C13A, the “aptazyme ON/OFF ratio” value stood at 1.03.

Turning to U7G U8G G9C U10A C12A C13G, the “aptazyme ON/OFF ratio” value came to 1.04.

For the variant U7G U8G G9A U10C U11C C13U, the “aptazyme ON/OFF ratio” value came to 1.01.

On to U7G U8G G9A U10C U11C C13G, for which the “aptazyme ON/OFF ratio” value is 0.991.

In the case of U7G U8G G9A U10C U11C C13A, the “aptazyme ON/OFF ratio” value is 0.99.

For the variant U7G U8G G9C C12A C13A, the “aptazyme ON/OFF ratio” value was determined as 1.22.

On to U7G U8G G9C C12A C13G, for which the “aptazyme ON/OFF ratio” value worked out at 1.08.

Regarding U7G U8G G9C C12A C13U, the “aptazyme ON/OFF ratio” value is 1.2.

In the case of U7G U8G G9C U10A U11G C12A C13U, the “aptazyme ON/OFF ratio” value amounted to 1.05.

Take U7G U8G G9C U10A U11G C12A C13A: the “aptazyme ON/OFF ratio” value was determined as 1.07.

On to U7G U8G G9C U10A U11G C12A C13G, for which the “aptazyme ON/OFF ratio” value amounted to 1.12.

On to U7G U8G G9C C12G C13G, for which the “aptazyme ON/OFF ratio” value came out at 1.13.

As for U7G U8G G9C C12G C13A, the “aptazyme ON/OFF ratio” value is 1.28.

For the variant U7G U8G G9C C12G C13U, the “aptazyme ON/OFF ratio” value is 1.35.

Take U7G U8G G9A U11C C12G: the “aptazyme ON/OFF ratio” value is 1.33.

On to U7G U8G G9A U11C C12U, for which the “aptazyme ON/OFF ratio” value stood at 1.65.

On to U7G U8G G9A U11C C12A, for which the “aptazyme ON/OFF ratio” value was 1.5.

U7G U8G G9A U10G U11A C12A: the “aptazyme ON/OFF ratio” value turned out to be 1.07.

For U7G U8G G9A U10G U11A C12G, the “aptazyme ON/OFF ratio” value came out at 1.15.

In the case of U7G U8G G9A U10G U11A C12U, the “aptazyme ON/OFF ratio” value was 1.13.

For U7G U8G G9A U10C C13U, the “aptazyme ON/OFF ratio” value worked out at 1.59.

For the variant U7G U8G G9A U10C C13A, the “aptazyme ON/OFF ratio” value was found to be 1.12.

For the variant U7G U8G G9A U10C C13G, the “aptazyme ON/OFF ratio” value was determined as 1.12.

On to U7G U8G G9A U10C U11A, for which the “aptazyme ON/OFF ratio” value worked out at 2.49.

As for U7G U8G G9A U10C U11C, the “aptazyme ON/OFF ratio” value was 1.08.

On to U7G U8G G9A U10C U11G, for which the “aptazyme ON/OFF ratio” value amounted to 1.89.

Take U7G U8G G9C U10A U11A C12G C13G: the “aptazyme ON/OFF ratio” value was determined as 1.05.

For the variant U7G U8G G9C U10A U11A C12G C13A, the “aptazyme ON/OFF ratio” value was 1.08.

For U7G U8G G9C U10A U11A C12G C13U, the “aptazyme ON/OFF ratio” value stood at 1.02.

Regarding U7G U8G G9A U10C C12G C13G, the “aptazyme ON/OFF ratio” value is 1.16.

Regarding U7G U8G G9A U10C C12G C13A, the “aptazyme ON/OFF ratio” value is 1.26.

For U7G U8G G9A U10C C12G C13U, the “aptazyme ON/OFF ratio” value turned out to be 1.33.

On to U7G U8G G9A U10G C12G, for which the “aptazyme ON/OFF ratio” value stood at 1.28.

For U7G U8G G9A U10G C12A, the “aptazyme ON/OFF ratio” value worked out at 1.27.

Take U7G U8G G9A U10G C12U: the “aptazyme ON/OFF ratio” value is 1.29.

With U7G U8G G9A U10C U11G C13G, the “aptazyme ON/OFF ratio” value stood at 1.28.

Consider U7G U8G G9A U10C U11G C13A, for which the “aptazyme ON/OFF ratio” value is 1.27.

Consider U7G U8G G9A U10C U11G C13U, for which the “aptazyme ON/OFF ratio” value was 1.19.

With U7G U8G G9A U10G U11A, the “aptazyme ON/OFF ratio” value turned out to be 1.07.

For the variant U7G U8G G9A U10G U11G, the “aptazyme ON/OFF ratio” value was 1.61.

As for U7G U8G G9A U10G U11C, the “aptazyme ON/OFF ratio” value was determined as 1.05.

As to U7G U8G G9A U11A C13A, the “aptazyme ON/OFF ratio” value worked out at 1.35.

On to U7G U8G G9A U11A C13U, for which the “aptazyme ON/OFF ratio” value was 1.11.

Regarding U7G U8G G9A U11A C13G, the “aptazyme ON/OFF ratio” value was 1.06.

For the variant U7G U8G G9C U10C U11C C12G, the “aptazyme ON/OFF ratio” value stood at 1.05.

Take U7G U8G G9C U10C U11C C12A: the “aptazyme ON/OFF ratio” value was determined as 1.09.

For the variant U7G U8G G9A U10A U11C C12U, the “aptazyme ON/OFF ratio” value came to 1.1.

As for U7G U8G G9A U10A U11C C12G, the “aptazyme ON/OFF ratio” value came out at 1.23.

Consider U7G U8G G9A U10A U11C C12A, for which the “aptazyme ON/OFF ratio” value stood at 1.21.

U7G U8G G9A U11C C12A C13A: the “aptazyme ON/OFF ratio” value was 1.39.

For U7G U8G G9A U11C C12A C13G, the “aptazyme ON/OFF ratio” value turned out to be 1.15.

As for U7G U8G G9A U11C C12A C13U, the “aptazyme ON/OFF ratio” value was found to be 1.41.

Turning to U7G U8G G9C U10A U11C C12A, the “aptazyme ON/OFF ratio” value came out at 1.06.

These data come from the RNAGym collection of RNA variant scans (doi:10.1021/acssynbio.7b00057).
